From patent US20040242851A1 (published 2004)

Columns and labels:
[1] = molecular target: T1, Flt-1-Fc fusion protein (UniProt P17948 27-756, limits assumed); experiment: BIAcore SPR, Flt-1-Fc immobilized on the chip, antibody injected
T1 construct: Bought from R&D Systems; also called immobilized Flt-1; not shown: Fc
Description: (§1) The binding kinetics of the diabody and its parent scFv to KDR and Flt-1 were measured using a BIAcore biosensor (Pharmacia Biosensor). KDR-AP or Flt-1-Fc fusion protein was immobilized onto a sensor chip and soluble antibodies were injected at concentrations ranging from 1.5 nM to 100 nM. Sensorgrams were obtained at each concentration and were analyzed with, BIA Evaluation 2.0, a program to determine the rate constants kon and koff. The affinity constant, Kd, was calculated from the ratio of rate constants koff/kon.

[2] = molecular target: T1, Flt-1-Fc fusion protein; experiment: direct binding ELISA on immobilized Flt-1, detection with anti-E tag antibody-HRP, A450
Description: (§2) Two assays were carried out to determine the dual antigen binding capability of the diabody. First, a cross-linking assay was used to investigate whether the diabody is capable of binding both of its target antigens simultaneously. Briefly, the diabody or its parent scFv were first incubated in a 96-well Maxi-sorp microtiter plate (Nunc, Roskilde, Denmark) precoated with Flt-1-Fc fusion protein (1 μg/ml×[…] per well overnight at 4° C.) at room temperature (RT) for 1 h. The plate was washed three times with PBS containing 0.1% Tween (PBST), followed by incubation with KDR-AP fusion protein at RT for additional 1 h. The plate-bound KDR-AP was then quantified by the addition of AP substrate, p-nitrophenyl phosphate (Sigma, St. Louis, Mo.), followed by reading of the absorbance at 405 nm (Lu, D. et al., 1999). In the second, direct binding assay, various amounts of diabody or scFv were added to KDR or Flt-1 coated 96-well plates and incubated at RT for 1 h, after which the plates were washed 3 times with PBST. The plates were then incubated at RT for 1 h with 100 μl of an anti-E tag antibody-HRP conjugate (Amersham Pharmacia Biotech). The plates were washed, peroxidase substrate added, and the absorbance at 450 nm read following the procedure described previously (Lu, D. et al., 1999).
(§3) The antigen binding efficiency of the diabody was determined on immobilized KDR and Flt-1. […]

[3] = molecular target: T1, Flt-1-Fc fusion protein; experiment: blocking ELISA: antibody pre-mixed with Flt-1-Fc, transferred to immobilized PlGF; plate-bound Flt-1-Fc detected with anti-human Fc-HRP, A450
Description: The assays followed previously described protocols (Zhu, Z. et al., 1998; Lu, D. et al., 1999). Briefly, various amounts of the diabody or scFv were mixed with a fixed amount of KDR-AP (100 ng) or Flt-1-Fc fusion protein (50 ng) and incubated at RT for 1 h. The mixture were then transferred to 96-well microtiter plates precoated with VEGF₁₆₅ (200 ng/well) or PlGF (200 ng/well) and incubated at RT for an additional 2 h, after which the plates were washed 5 times with PBS. For the KDR-AP assay, the substrate for AP was added, followed by reading of the absorbance at 405 nm to quantify the plate-bound KDR-AP. For the Flt-1-Fc assay, the plate was incubated with a mouse anti-human Fc-HRP conjugate to quantify the plate-bound Flt-1-Fc.

[4] = molecular target: KDR on human umbilical vein endothelial cells (HUVEC) (human, UniProt P35968 20-1356); experiment: cell-based or functional assay
Sequence of KDR on human umbilical vein endothelial cells (HUVEC) (P35968 20-1356): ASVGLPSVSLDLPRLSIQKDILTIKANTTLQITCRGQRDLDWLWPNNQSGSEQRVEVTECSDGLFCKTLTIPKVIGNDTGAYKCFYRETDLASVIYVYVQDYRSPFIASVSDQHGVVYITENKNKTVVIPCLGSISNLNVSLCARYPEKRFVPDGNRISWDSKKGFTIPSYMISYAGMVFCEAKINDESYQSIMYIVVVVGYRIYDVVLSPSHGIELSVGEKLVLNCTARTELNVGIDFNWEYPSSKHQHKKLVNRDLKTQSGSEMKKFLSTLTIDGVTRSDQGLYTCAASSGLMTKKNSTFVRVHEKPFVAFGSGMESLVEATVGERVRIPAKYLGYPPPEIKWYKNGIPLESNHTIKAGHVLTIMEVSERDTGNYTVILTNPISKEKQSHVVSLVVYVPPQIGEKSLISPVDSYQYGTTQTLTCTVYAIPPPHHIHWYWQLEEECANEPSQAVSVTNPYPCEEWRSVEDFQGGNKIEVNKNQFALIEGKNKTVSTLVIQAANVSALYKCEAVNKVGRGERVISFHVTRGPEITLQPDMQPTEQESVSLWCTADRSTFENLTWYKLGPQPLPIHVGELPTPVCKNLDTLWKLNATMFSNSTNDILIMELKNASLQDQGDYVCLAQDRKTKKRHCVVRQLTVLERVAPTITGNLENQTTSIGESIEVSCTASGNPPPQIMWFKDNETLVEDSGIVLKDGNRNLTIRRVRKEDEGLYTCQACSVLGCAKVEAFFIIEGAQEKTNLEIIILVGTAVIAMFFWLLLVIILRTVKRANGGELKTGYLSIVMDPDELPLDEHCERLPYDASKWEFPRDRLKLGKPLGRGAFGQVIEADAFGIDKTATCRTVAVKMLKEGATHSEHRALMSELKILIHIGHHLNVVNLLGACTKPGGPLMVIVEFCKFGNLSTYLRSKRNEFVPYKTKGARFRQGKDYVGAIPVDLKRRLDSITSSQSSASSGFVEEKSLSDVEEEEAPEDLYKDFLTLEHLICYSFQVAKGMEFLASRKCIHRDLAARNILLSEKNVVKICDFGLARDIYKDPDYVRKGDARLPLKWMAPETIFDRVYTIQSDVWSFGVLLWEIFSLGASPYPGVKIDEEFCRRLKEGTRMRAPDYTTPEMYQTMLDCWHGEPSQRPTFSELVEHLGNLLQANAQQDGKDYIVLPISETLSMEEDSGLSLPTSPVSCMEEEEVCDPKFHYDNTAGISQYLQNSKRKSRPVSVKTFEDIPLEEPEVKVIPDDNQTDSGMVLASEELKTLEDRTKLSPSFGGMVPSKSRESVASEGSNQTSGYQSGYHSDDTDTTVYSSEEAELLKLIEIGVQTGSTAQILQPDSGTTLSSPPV

[5] = molecular target: T2, soluble fusion protein KDR-alkaline phosphatase (AP) (human, UniProt P35968 20-764); experiment: direct binding ELISA on immobilized KDR, detection with anti-E tag antibody-HRP, A450
T2 construct: Expressed in stably transfected NIH 3T3 cells; also called KDR-AP; soluble KDR; not shown: alkaline phosphatase (AP)
T2 sequence (P35968 20-764): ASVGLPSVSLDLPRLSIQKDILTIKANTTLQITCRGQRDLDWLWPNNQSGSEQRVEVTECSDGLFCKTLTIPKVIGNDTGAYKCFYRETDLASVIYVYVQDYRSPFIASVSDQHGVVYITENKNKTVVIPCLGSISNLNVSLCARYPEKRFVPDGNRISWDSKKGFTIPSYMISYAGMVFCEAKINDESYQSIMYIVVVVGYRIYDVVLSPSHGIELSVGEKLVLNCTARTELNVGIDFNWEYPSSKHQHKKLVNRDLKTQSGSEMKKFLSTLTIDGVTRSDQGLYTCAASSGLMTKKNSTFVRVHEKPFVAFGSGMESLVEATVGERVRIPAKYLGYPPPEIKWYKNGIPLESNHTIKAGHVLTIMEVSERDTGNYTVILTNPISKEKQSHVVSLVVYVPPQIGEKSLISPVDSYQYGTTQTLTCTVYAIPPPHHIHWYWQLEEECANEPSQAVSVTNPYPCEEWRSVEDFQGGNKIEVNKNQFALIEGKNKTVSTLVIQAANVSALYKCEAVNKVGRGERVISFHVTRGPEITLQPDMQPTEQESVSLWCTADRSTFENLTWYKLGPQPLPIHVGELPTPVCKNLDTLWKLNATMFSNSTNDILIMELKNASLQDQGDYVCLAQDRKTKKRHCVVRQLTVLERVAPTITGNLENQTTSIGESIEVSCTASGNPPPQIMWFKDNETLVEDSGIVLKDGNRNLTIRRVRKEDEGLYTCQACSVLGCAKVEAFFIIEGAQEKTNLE
Description: as §2, §3

[6] = molecular target: T2, soluble fusion protein KDR-alkaline …; experiment: BIAcore SPR, KDR-AP immobilized on the chip, antibody injected
Description: as §1

T1 sequence (P17948 27-756 limits assumed): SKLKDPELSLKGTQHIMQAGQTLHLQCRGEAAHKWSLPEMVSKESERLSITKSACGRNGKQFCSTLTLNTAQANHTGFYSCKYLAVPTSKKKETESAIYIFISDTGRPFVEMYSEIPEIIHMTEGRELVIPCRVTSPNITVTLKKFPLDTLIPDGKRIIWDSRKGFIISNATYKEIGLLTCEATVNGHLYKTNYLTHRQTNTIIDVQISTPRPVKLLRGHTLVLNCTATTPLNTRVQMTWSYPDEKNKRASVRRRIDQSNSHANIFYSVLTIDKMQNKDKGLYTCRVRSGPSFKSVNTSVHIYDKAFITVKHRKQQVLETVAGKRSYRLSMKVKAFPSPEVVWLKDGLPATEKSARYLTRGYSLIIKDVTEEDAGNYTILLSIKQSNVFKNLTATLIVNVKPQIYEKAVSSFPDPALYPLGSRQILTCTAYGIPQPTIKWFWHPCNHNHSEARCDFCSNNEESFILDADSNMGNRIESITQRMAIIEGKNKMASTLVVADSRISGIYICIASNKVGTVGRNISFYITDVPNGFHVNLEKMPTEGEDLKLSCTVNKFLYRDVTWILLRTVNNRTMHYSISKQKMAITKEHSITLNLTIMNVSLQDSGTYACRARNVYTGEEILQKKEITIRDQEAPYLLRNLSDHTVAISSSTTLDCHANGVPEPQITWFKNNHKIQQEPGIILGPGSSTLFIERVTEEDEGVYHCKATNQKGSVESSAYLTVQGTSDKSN

Binder | Kd [1] [nM] | koff [1] [s⁻¹] | kon [1] [M⁻¹ s⁻¹] | EC50 (read off the curve) [2] [nM] | IC50 (read off the curve) [3] [nM] | VEGF-stimulated HUVEC mitogenesis ([3H]-TdR incorporation), IC50 [4] [nM] | EC50 (read off the curve) [5] [nM] | binding result [2] | Kd [6] [nM] | koff [6] [s⁻¹] | kon [6] [M⁻¹ s⁻¹]
scFv 6.12 (scFv, not shown: small tags and cut ends, The soluble scFv from pCANTAB 5E carried a C-terminal E tag (detected with anti-E tag) whose letters the patent does not give; it is left out., VH-(GGGGS)3-VL, expressed from pCANTAB 5E in E. coli) scFv: QVKLQQSGAELVKPGASVKLSCTASGFNIKDTYIHWVKQSPEQGLEWIGRIDPPNDNTKYDPKFQGKATITADTSSNTAYMQLRSLTSEDTAVYYCALPPFYFDYWGHGTTVTVSSGGGGSGGGGSGGGGSDIELTQSPKFMSTSVGDRVSVTCKASQNVDTNVAWYQQKPGQSPKALIYSASYRYSGVPDRFTGSGSGTDFTLTISNVQSEDLAEYFCQQYNSFPYTFGGGTKLEIK | 9.8 | 0.00236 | 241000 | ~0.6 | ~1 |  |  |  |  |  | 
scFv p1C11 (scFv, soluble form made in E. coli; also called KDR-specific scFv p1C11) scFv: QVKLQQSGAELVGSGASVKLSCTTSGFNIKDFYMHWVKQRPEQGLEWIGWIDPENGDSDYAPKFQGKATMTADSSSNTAYLQLSSLTSEDTAVYYCNAYYGDYEGYWGQGTTVTVSSGGGGSGGGGSGGGGSDIELTQSPAIMSASPGEKVTITCSASSSVSYMHWFQQKPGTSPKLWIYSTSNLASGVPARFSGSGSGTSYSLTISRMEAEDAATYYCQQRSSYPFTFGSGTKLEIK |  |  |  |  |  | ~2 | ~0.4 | no binding (tested: about 50 nM) | 1.68 | 0.000121 | 74200
